US20110280888A1
One block for each molecule: values may come before it.

Columns and labels:
[1] = molecular target: carbohydrate containing epitope on CD43 and/or CEA as expressed on SU.86.86 pancreatic cancer cells; assay: flow cytometry on SU.86.86 cells, secondary antibody alone at 1 ug/ml
[2] = molecular target: carbohydrate containing epitope on CD43 and/or CEA as expressed on COLO 205 colorectal cancer cells; assay: flow cytometry on Colo 205 cells, secondary antibody alone
[3] = molecular target: carbohydrate containing epitope on CD43 and/or CEA as expressed on COLO 205 colorectal cancer cells; assay: flow cytometry on Colo 205 cells, antibody at 1 ug/ml, R-PE secondary
[4] = molecular target: carbohydrate containing epitope on CD43 and/or CEA as expressed on COLO 205 colorectal cancer cells; assay: flow cytometry on Colo 205 cells, control antibody
[5] = molecular target: carbohydrate containing epitope on CD43 and/or CEA as expressed on COLO 205 colorectal cancer cells; assay: flow cytometry on Colo 205 cells, antibody at 1 ug/ml, R-PE anti-mouse secondary
[6] = molecular target: carbohydrate containing epitope on CD43 and/or CEA as expressed on SU.86.86 pancreatic cancer cells; assay: cell-based or functional assay
[7] = molecular target: carbohydrate containing epitope on CD43 and/or CEA as expressed on SU.86.86 pancreatic cancer cells; assay: flow cytometry on SU.86.86 cells, antibody at 1 ug/ml, R-PE anti-mouse secondary

- MFI [1]: 6 MFI
- background signal (MFI) [2]: 3 MFI
Molecule: R-PE-conjugated goat F(ab')2 anti-mouse IgG(H+L), Southern Biotech, Cat. No.1032-09 (antibody)

- background signal (MFI) [4]: 5 MFI
Molecule: human IgG (control antibody of FIG. 3)

- Median Fluorescence Intensity (MFI) [3]: 7 MFI
Molecule: mIgG3 (control antibody of Table 10)

- background signal (MFI) [4]: 4 MFI
Molecule: mouse IgG (control antibody of FIG. 3)

The remaining lines, values behind:

Molecule: R-PE-conjugated goat anti-human IgG, Southern Biotech, Cat. No.2040-09 (antibody)
- background signal (MFI) [2]: 3 MFI

Molecule: hIgG1 (control antibody of Table 10)
- Median Fluorescence Intensity (MFI) [3]: 6 MFI

B1: murine 5F1 antibody (m5F1) (antibody, V domains shown)
VH: EVQLQQSGPELVKPGASVRMSCTASGYTFTSYVMHWIKQKPGQGLDWIGYINPYNGGTQYNEKFKGKATLTSDKSSSTAYMELSSLTSEDSAVYYCARRTFPYYFDYWGQGTTLTVSS
VL: DVLMTQTPLSLPVSLGDQASISCRSSQSILHSNGNTYLEWYLQKPGQSPKLLIYKVSNRFSGVPDRFSGSGSGTDFTLKISRVEAEDLGVYYCFQGSHAPLTFGAGTKLELK
- Median Fluorescence Intensity (MFI) [5]: 800 MFI
- % of Annexin V and/or PI positive cells, SU.86.86 cells, 6 h, m5F1 at 2 ug/ml [6]: 60%
- % of Annexin V and/or PI positive cells, SU.86.86 cells, 6 h, m5F1 at 4 ug/ml [6]: 72%
- % of Annexin V and/or PI positive cells, SU.86.86 cells, 6 h, m5F1 at 8 ug/ml [6]: 78%
- % of Annexin V and/or PI positive cells, SU.86.86 cells, 6 h, m5F1 at 16 ug/ml [6]: 89%
- % of Annexin V and/or PI positive cells, SU.86.86 cells, 6 h, m5F1 at 32 ug/ml [6]: 91%
- MFI [7]: 131 MFI
